How the values were obtained:
[1] = target: T1, 300 kD GDNF receptor subunit of rat cell lines; test: displacement of 125I-GDNF by cold GDNF on RN33B cells, cross-linking, SDS-PAGE, bands counted
T1 construct: On C6, L6, RN33B, RN46A and ST15A cells; also called large molecular weight band; high molecular weight component
Experimental: (§1) Plated cells were incubated with 10 ng/ml […] at 4° C. in binding buffer as described above. Ligand/receptor complexes were chemically cross-linked for thirty minutes at room temperature using either disuccinimidyl suberate (DSS) or 1-Ethyl-3(-3-dimethylaminopropyl)-carbodiimide hydrochloride (EDAC) (Pierce Chemical, Rockland, Ill.). Following quenching of the cross-linking reactions, cells were washed twice with 10 mM Tris/HCl buffered saline, 2 mM EDTA, 10% glycerol, 1% NP40, 1% Triton x-100, 10 μg/ml leupeptin, 10 μg/ml antipain, 50 μg/ml aprotinin, 100 μg/ml benzamidine hydrochloride, 10 μg/ml pepstatin and 1 mM PMSF(proteinase inhibitors from Sigma). Cleared lysates were boiled for 5 min in SDS/β-mercaptoethanol buffer, fractionated by SDS/PAGE on 4-20% gradient electrophoresis gels, and visualized by autoradiography. […] These samples were fractionated by gradient SDS/PAGE, gels were then dried and specific bands excised according to molecular weights determined from autoradiograms, and count in a gamma counter. […]
(§2) In order to dissect the individual constituent affinities of GDNF receptor subunits, displacement binding assays were performed, followed by cross-linking and SDS-PAGE. Receptor-ligand complexes were visualized by autoradiography, cut out from the gel and counted in a gamma counter.

[2] = target: T2, 135 kD GDNF receptor subunit of rat cell lines; test: as above
T2 construct: On C6, L6, RN33B and RN46A cells
Experimental: as §1, §2

[3] = target: 300 kD GDNF receptor subunit of mouse cell lines (MN-1, TM4, SK-N-SH as printed); test: displacement of 125I-GDNF by cold GDNF on MN-1 cells, cross-linking, SDS-PAGE, bands counted
Experimental: as §1, §2

[4] = target: T3, 70 kD GDNF receptor subunit of rat cell lines (designated GDNFR-β) (rat, UniProt O35977 22-444); test: displacement of 125I-GDNF by increasing cold GDNF on RN33B cells, cross-linking, SDS-PAGE, band of the subunit cut out and counted
T3 construct: whole, on cells; also called 65-70 kD receptor; 100 kD complex (with GDNF) in RN33B cells
T3 sequence: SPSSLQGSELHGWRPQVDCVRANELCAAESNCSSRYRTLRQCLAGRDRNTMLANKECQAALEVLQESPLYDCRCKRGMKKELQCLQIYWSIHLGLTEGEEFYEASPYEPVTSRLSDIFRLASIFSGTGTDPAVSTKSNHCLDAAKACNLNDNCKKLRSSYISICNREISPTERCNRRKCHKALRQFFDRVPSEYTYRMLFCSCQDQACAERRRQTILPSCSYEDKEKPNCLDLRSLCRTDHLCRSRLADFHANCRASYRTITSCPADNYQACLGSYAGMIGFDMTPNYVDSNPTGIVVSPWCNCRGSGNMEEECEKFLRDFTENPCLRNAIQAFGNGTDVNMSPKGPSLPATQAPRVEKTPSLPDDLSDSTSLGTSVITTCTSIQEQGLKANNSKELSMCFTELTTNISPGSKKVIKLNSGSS
Experimental: (§3) Plated cells were incubated with 10 ng/ml […] at 4° C. in binding buffer as described above. Ligand/receptor complexes were chemically cross-linked for thirty minutes at room temperature using either disuccinimidyl suberate (DSS) or 1-Ethyl-3(-3-dimethylaminopropyl)-carbodiimide hydrochloride (EDAC) (Pierce Chemical, Rockland, Ill.). Following quenching of the cross-linking reactions, cells were washed twice with 10 mM Tris/HCl buffered saline, 2 mM EDTA, 10% glycerol, 1% NP40, 1% Triton x-100, 10 μg/ml leupeptin, 10 μg/ml antipain, 50 μg/ml aprotinin, 100 μg/ml benzamidine hydrochloride, 10 μg/ml pepstatin and 1 mM PMSF(proteinase inhibitors from Sigma). Cleared lysates were boiled for 5 min in SDS/β-mercaptoethanol buffer, fractionated by SDS/PAGE on 4-20% gradient electrophoresis gels, and visualized by autoradiography. Molecular weights indicated were obtained by subtracting the weight of a GDNF ligand monomer, e.g., 25-30 kD, more preferably […], from the estimated molecular weights of cross-linked complexes visualized by SDS/PAGE. For affinity measurements of cross-linked complexes, cells were incubated on plates as above in the presence of increasing amounts of unlabeled GDNF. These samples were fractionated by gradient SDS/PAGE, gels were then dried and specific bands excised according to molecular weights determined from autoradiograms, and count in a gamma counter. […] Immunocomplexes were collected with Protein A-Sepharose (Pharmacia, Sweden), washed in lysis buffer and boiled for 5 minutes before SDS/PAGE and autoradiography as above.
as §2

[5] = target: T1, 300 kD GDNF receptor subunit of rat …; test: as above
Experimental: as §3, §2

[6] = target: T4, 55 kD GDNF receptor subunit of rat cell lines (confirmed to be GDNFR-α) (rat, UniProt Q62997 25-430); test: as above
T4 construct: whole, on cells; also called 50-55 kD receptor; 70 kD complex (with GDNF) in RN33B cells
T4 sequence (looked up): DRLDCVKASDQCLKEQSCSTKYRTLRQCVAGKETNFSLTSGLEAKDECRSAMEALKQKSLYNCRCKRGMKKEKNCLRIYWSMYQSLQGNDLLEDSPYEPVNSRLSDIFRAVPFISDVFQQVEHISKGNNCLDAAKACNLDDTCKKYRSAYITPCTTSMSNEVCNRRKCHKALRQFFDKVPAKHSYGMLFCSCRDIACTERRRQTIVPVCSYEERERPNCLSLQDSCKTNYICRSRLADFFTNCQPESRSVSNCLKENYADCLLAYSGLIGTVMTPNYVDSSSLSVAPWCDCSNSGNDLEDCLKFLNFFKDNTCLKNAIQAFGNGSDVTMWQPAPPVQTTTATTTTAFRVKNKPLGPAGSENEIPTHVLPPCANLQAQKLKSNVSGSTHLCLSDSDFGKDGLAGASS
Experimental: as §3, §2

[7] = target: T2, 135 kD GDNF receptor subunit of rat …; test: as above
Experimental: as §3, §2

B1: recombinant rat GDNF produced in Sf21 insect cells using a baculovirus expression system (ligand, UniProt Q07731 78-211, looked up)
chain: SPDKQAAALPRRERNRQAAAASPENSRGKGRRGQRGKNRGCVLTAIHLNVTDLGLGYETKEELIFRYCSGSCEAAETMYDKILKNLSRSRRLTSDKVGQACCRPVAFDDDLSFLDDSLVYHILRKHSAKRCGCI
modifications: labeled with Na-^125I by the chloramine-T method where used as tracer
notes: mature; also called glial cell line-derived neurotrophic factor
- Kd [1]: ~200 pM
- Kd [2]: ~200 pM
- Kd [3]: ~200 pM
- IC50 (read off the curve) [4]: ~200 pM
- IC50 (read off the curve) [5]: ~100 pM
- IC50 (read off the curve) [6]: ~200 pM
- IC50 (read off the curve) [7]: ~200 pM

Reference: patent US20040126819A1 (LICENTIA, published 2004)
